Consider 72 sequences from the supplement of paper PMC10567573.

± gives the standard deviation.

The data set is described as follows: protein stability index of a GFP-peptide fusion (GPS, HEK-293T) (PSI 1-6); higher = more stable.
Where [1] appears, read: treatment: DMSO, c terminus: a fixed tail appended.
The mark [2] stands for this setting: treatment: MLN4924 1 uM, 8 h, c terminus: a fixed tail appended.
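Further: 24-mer peptide tiles fused after GFP, lentivirally expressed, FACS-sorted into six equal bins by GFP/DsRed ratio, decoded by Illumina sequencing, PSI is the read-weighted mean bin number.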

As for TIEECCRKQKQELCEKFDYLYGIL [TRIM55], the protein stability index by setting is: under setting [1], 1.88 ± 0.54; under setting [2], 2.41 ± 0.85.
Consider TIIPILQHLKYKEHPEALSCLLLQ [INTS3], for which the protein stability index is, setting by setting: under setting [1], 2.35 ± 0.15; under setting [2], 2.25 ± 0.14.
Consider TILLSYGVILHSLKTQSLEGKRKA [OR4A15], for which the protein stability index turned out to be 2.5 ± 0.082 under setting [1] and 2.41 ± 0.55 under setting [2].
Turning to TISFGSVSPGGVKLEISTKEVPVV [EPB41L3], the protein stability index stood at 2.9 ± 0.21 under setting [1] and 3.31 ± 0.18 under setting [2].
On the same counts, the results for TKGVREVERALQLPREPGDSAQFT [FEM1A] are 4.72 ± 0.23 and 4.76 ± 0.29.
Take TKILVVNAAYFVGKWMKKFPESET [SERPINB5]: the protein stability index was 2.56 ± 0.6 under setting [1] and 2.53 ± 0.47 under setting [2].
TKIRALQGSLENMSKLLKRQNDIL [CD207] returned a protein stability index under setting [1] of 2.4 ± 0.16 and a protein stability index under setting [2] of 2.57 ± 0.21.
As for TKNKELTDEFRELRATVERMGLMK [FADS1], the protein stability index runs as follows: under setting [1], 3.71 ± 0.37; under setting [2], 3.55 ± 0.27.
Take TKVGGTNPNGGSFEEVLSSTAHAS [TPD52L1]: the protein stability index is, setting by setting: under setting [1], 4.78 ± 0.26; under setting [2], 4.69 ± 0.26.
On the same counts, the results for TLKCLSHHVADAYTSSQKVSPIQI [TOR1AIP2] are 2.53 ± 0.096 and 2.6 ± 0.37.
For the sequence TLLKKISEASKAFQMEKIEHGYEN [TRIM55], the protein stability index by setting is: under setting [1], 2.3 ± 0.26; under setting [2], 2.4 ± 0.15.
Turning to TLPVSGNLLDVYSSQGVATPAITV [TFE3], the protein stability index was 2.58 ± 0.24 under setting [1] and 2.73 ± 0.27 under setting [2].
With TLPYPVKIKVRFSFFLQIYLIMIF [HACD3], the protein stability index is, setting by setting: under setting [1], 2.86 ± 0.94; under setting [2], 2.84 ± 0.72.
Take TLRDHFKGISSHSRSSLMPLRNDV [SLC2A12]: the protein stability index worked out at 2.96 ± 0.15 under setting [1] and 3.03 ± 0.37 under setting [2].
On to TNFHGVCMFCNEEFLGNRSVILNH [ZNF277], for which the protein stability index is, setting by setting: under setting [1], 2.08 ± 0.33; under setting [2], 2.11 ± 0.39.
Turning to TPISNEVEMESEEQIAERKRKMVS [KMT2E], the protein stability index was 5.02 ± 0.36 under setting [1] and 5.05 ± 0.18 under setting [2].
Turning to TPLHVAAFLGDAEIIELLILSGAR [ANKRD44], the protein stability index worked out at 2.57 ± 0.7 under setting [1] and 2.52 ± 0.22 under setting [2].
For the sequence TPLLIAARYGHLDVVEYLVDRCGA [FEM1A], the protein stability index is 2.05 ± 0.27 under setting [1] and 2.18 ± 0.15 under setting [2].
The like results for TPLTFTKVSEGQADIMISFVRGDH [MMP1] were, in that order, 2.64 ± 0.28 and 2.65 ± 0.26.
As to TPRRVFANAHTYHINSISVNSDYE [PPP2R2B], the protein stability index is 3.35 ± 0.34 under setting [1] and 3.12 ± 0.42 under setting [2].
Consider TPVSYRMAKTLVFSKVKTSLGLDH [ACSBG2], for which the protein stability index is, setting by setting: under setting [1], 2.33 ± 0.33; under setting [2], 2.41 ± 0.18.
Regarding TQHWPIRLDGQQEPQPFVTSDVYS [MYORG], the protein stability index runs as follows: under setting [1], 3.56 ± 0.27; under setting [2], 3.46 ± 0.22.
For TQPTHGQFALTNGDPLNCHSYLSG [NR2F2], the protein stability index runs as follows: under setting [1], 3.69 ± 0.17; under setting [2], 3.87 ± 0.23.
The like results for TSCKLTDLRGVCVSGKCEPIGCDG [ADAMTSL2] were, in that order, 3.4 ± 0.12 and 3.28 ± 0.27.
For TSVNLGILTADLYSLFVGLFLFGY [SLC35F2], the protein stability index runs as follows: under setting [1], 2.93 ± 0.26; under setting [2], 3.12 ± 0.2.
On the same counts, the results for TTISYLPHAPPFAGGHPAQLGLGR [JUNB] are 2.72 ± 0.2 and 2.61 ± 0.26.
The like results for TTNVKSASRQKTSLGIELHCNVSN [ZNF396] were, in that order, 3.39 ± 0.29 and 3.82 ± 0.31.
For the sequence TVSTSEVTSQQEPQIPVDRGSETT [TAF7L], the protein stability index under setting [1] stood at 5.49 ± 0.12 and the protein stability index under setting [2] is 5.44 ± 0.16.
In turn, TYSLPPFLKAVLRQERVSLYPFQI [CDS1] had a protein stability index under setting [1] of 2.19 ± 0.8 and a protein stability index under setting [2] of 2.12 ± 0.32.
The like results for VAQRSGCEERWLVIDRKVYNISEF [FADS1] were, in that order, 2.11 ± 0.084 and 2.12 ± 0.32.
Take VAQTGILWLLMNNCFLNLSPRKP [GAGE1]: the protein stability index (treatment: DMSO, c terminus: native) was determined as 2.71 ± 0.17 and the protein stability index (treatment: MLN4924 1 uM, 8 h, c terminus: native) stood at 2.82 ± 1.2.
In the case of VARSGTPAVENKQQIGDAIRMIVR [PLK2], the protein stability index under setting [1] turned out to be 3 ± 0.22 and the protein stability index under setting [2] was determined as 3.09 ± 0.23.
The like results for VAVESMEPNNIVVLLQTSPYHVDS [TCF25] were, in that order, 2.28 ± 0.38 and 2.13 ± 0.4.
On to VAVNGESVETLDHDSVVEMIRKGG [PDZK1], for which the protein stability index under setting [1] was 4.61 ± 0.27 and the protein stability index under setting [2] turned out to be 4.59 ± 0.24.
In the case of VCINLPPPLTRQIAVKTLGIGKNV [GFOD1], the protein stability index reads like this: under setting [1], 2.23 ± 0.27; under setting [2], 2.05 ± 0.19.
The like results for VCNINKGCGYGCQLHHVVYCFMIA [FUT8] were, in that order, 2.89 ± 0.42 and 3.2 ± 0.68.
The like results for VCSQCGKVLEEGGFFEEKGAIFCP [PDLIM7] were, in that order, 4.88 ± 0.22 and 4.81 ± 0.38.
For the sequence VDGAGKPGAEEAQDPEGKGEQEHS [CHGA], the protein stability index is 5.56 ± 0.18 under setting [1] and 5.3 ± 0.11 under setting [2].
Turning to VDIKPANMEELTEVITAAEFHPHH [PPP2R2B], the protein stability index runs as follows: under setting [1], 4.47 ± 0.34; under setting [2], 4.42 ± 0.58.
Turning to VEKFIYENHPDVFSDSSMDHFQKF [MYOZ1], the protein stability index came out at 2.94 ± 0.2 under setting [1] and 3.09 ± 0.19 under setting [2].
Turning to VFFVCFVPYHIARIPYTKSQTEAH [P2RY14], the protein stability index worked out at 3.57 ± 0.74 under setting [1] and 3.17 ± 0.35 under setting [2].
Regarding VFLPIVVLIFKSILFLPCLRKKIL [STEAP1], the protein stability index is, setting by setting: under setting [1], 2.98 ± 0.78; under setting [2], 2.98 ± 0.59.
In the case of VGRTGCFIVIDAMLERIKHEKTVD [PTPRD], the protein stability index reads like this: under setting [1], 2.25 ± 0.34; under setting [2], 2.54 ± 0.26.
On to VILAVSYMSQVLEKEMKAQEQRLG [GMPPB], for which the protein stability index came to 2.27 ± 0.42 under setting [1] and 2.08 ± 0.17 under setting [2].
Turning to VISCLEQGEEPWVQVSPEFKDSAG [ZNF75A], the protein stability index was 4.59 ± 0.11 under setting [1] and 4.68 ± 0.13 under setting [2].
Take VIVQLHKLRHLDISRDRLSSYYKF [ZER1]: the protein stability index is, setting by setting: under setting [1], 2.76 ± 0.63; under setting [2], 2.56 ± 0.45.
VKKCIFLLFINHRLVESTSLRKAI [MLH1] yielded a protein stability index under setting [1] of 3.14 ± 0.47 and a protein stability index under setting [2] of 2.97 ± 0.73.
For VKKLMRTSTPPPASVINNMLAEIF [ZBED1], the protein stability index by setting is: under setting [1], 2.2 ± 0.37; under setting [2], 2.02 ± 0.21.
Turning to VKVPTTLAEYCIKTKVPSNDNSSD [UBE2R2], the protein stability index reads like this: under setting [1], 4.41 ± 0.21; under setting [2], 4.63 ± 0.17.
Take VLKKLAQSRRTALATSPITVGDLG [YJU2B]: the protein stability index was determined as 2.614 ± 0.015 under setting [1] and 2.58 ± 0.24 under setting [2].
In the case of VLKTRFSYAFPKEFPYRMNHILEC [CCNC], the protein stability index under setting [1] is 2.59 ± 0.58 and the protein stability index under setting [2] is 2.2 ± 0.24.
Regarding VLLPETQKRQQLSEDTLTIHGLPT [C22orf31], the protein stability index by setting is: under setting [1], 3.73 ± 0.092; under setting [2], 3.88 ± 0.3.
On the same counts, the results for VLNPHPSLGYKEIRKGESRSEALA [CHGA] are 4.14 ± 0.19 and 4.5 ± 0.3.
VNDLRGSDSIAYDKGEKLLRCKLA [ADD1] returned a protein stability index under setting [1] of 3.34 ± 0.21 and a protein stability index under setting [2] of 3.48 ± 0.48.
On the same counts, the results for VNSDYETYMSADDLRINLWNFEIT [PPP2R2B] are 2.19 ± 0.23 and 2.4 ± 0.23.
On the same counts, the results for VNVSDRGGRTALHHAALNGHVEMV [ANKRD44] are 3.39 ± 0.43 and 3.24 ± 0.093.
Turning to VPDSDIKALTTLCDLADRELVVII [ESRRG], the protein stability index runs as follows: under setting [1], 2.53 ± 0.38; under setting [2], 2.6 ± 0.45.
Consider VPKVGQRFNRIGLPPKVGSFQLFV [PI4K2A], for which the protein stability index by setting is: under setting [1], 2.31 ± 0.78; under setting [2], 2.34 ± 0.44.
Regarding VPPGDYLFQVVINPNFEVAESDYS [LOXL2], the protein stability index reads like this: under setting [1], 2.31 ± 0.37; under setting [2], 2.12 ± 0.43.
As for VPRTLSPHQYHSVHGVGMVPEWSD [TBX5], the protein stability index reads like this: under setting [1], 3.62 ± 0.25; under setting [2], 3.77 ± 0.16.
The like results for VQIRRLEAAGESLEEEIRRKQILL [ZC2HC1C] were, in that order, 3.31 ± 0.37 and 3.45 ± 0.37.
In the case of VRCEALTGELETLKERCAQDACQA [CCDC89], the protein stability index runs as follows: under setting [1], 4.43 ± 0.39; under setting [2], 4.25 ± 0.18.
The like results for VRDMMANFHLNDLEAPHEDDAEGE [TCF25] were, in that order, 5.48 ± 0.13 and 5.3 ± 0.31.
On to VRRLQALRLEREEYVLLKALALAN [ESRRA], for which the protein stability index runs as follows: under setting [1], 2.18 ± 0.54; under setting [2], 2.12 ± 0.31.
With VRVLDMVAKLESECLKRQGQREPG [FBXO34], the protein stability index by setting is: under setting [1], 4.06 ± 0.29; under setting [2], 4.17 ± 0.31.
For the sequence VRYNAEKKKVGNYYTTPIYRFRMK [YJU2B], the protein stability index amounted to 2.57 ± 0.17 under setting [1] and 2.86 ± 0.35 under setting [2].
The like results for VSAGGHTLSRPPPAQVPREVLKVQ [TFE3] were, in that order, 3.95 ± 0.33 and 4.21 ± 0.11.
For the sequence VSCPEGRADCASESACSSDSLDEA [PWWP2B], the protein stability index reads like this: under setting [1], 5.4 ± 0.38; under setting [2], 5.41 ± 0.42.
In the case of VSDDLSSEEDGEARTQMILLRRSV [PHTF1], the protein stability index is, setting by setting: under setting [1], 4.8 ± 0.17; under setting [2], 5.08 ± 0.15.
Consider VSFVIHNLPIIAKMAAVSKASGRF [SEPHS2], for which the protein stability index was 3.08 ± 0.29 under setting [1] and 2.75 ± 0.61 under setting [2].
Turning to VSGSWERDQQVEAAQRALVEVLGP [RETREG3], the protein stability index reads like this: under setting [1], 3.9 ± 0.33; under setting [2], 4.08 ± 0.094.
The like results for VSLHQASLGGCSQDFLLFSPEVES [NFE2L1] were, in that order, 2.06 ± 0.12 and 2.971 ± 0.02.
